Experimental data as given in paper PMC8509808, “Characterization of the Chimeric PriB-SSBc Protein” (International Journal of Molecular Sciences, 2021).

Columns and labels:
[1] = target: chimeric PriB-SSBc protein (KpPriB1-98 fused KpSSB112-174) (Klebsiella pneumoniae) (UniProt A6THB2); test: SEC; purified PriB-SSBc 4 mg/mL in 20 mM HEPES, 100 mM NaCl, pH 7.0 on a Superdex 200 prep grade column, calibrated with standard proteins
[2] = target: T1, KpSSB (Klebsiella pneumoniae, UniProt A6TGW7 1-174); test: EMSA; monomer conc.; 1 complex; EMSA: 20 mM Tris-HCl pH 8.0, 100 mM NaCl, 25 C, 30 min, 1.7 nM 32P-ssDNA; 8% native PAGE in TBE at 4 C; settings: protein: recombinant; tags: none (tag-free); chain copies: 4; label: 5'-32P
[3] = target: T2, KpPriB (Klebsiella pneumoniae, UniProt A6THB2 1-104); test: as above; settings: protein: recombinant; tags: none (tag-free); chain copies: 2; label: 5'-32P
[4] = target: T1, KpSSB; test: EMSA; monomer conc.; 2 complexes; EMSA: 20 mM Tris-HCl pH 8.0, 100 mM NaCl, 25 C, 30 min, 1.7 nM 32P-ssDNA; 8% native PAGE in TBE at 4 C; settings: protein: recombinant; tags: none (tag-free); chain copies: 4; label: 5'-32P
[5] = target: T1, KpSSB; test: EMSA; ND; up to 5 uM protein; EMSA: 20 mM Tris-HCl pH 8.0, 100 mM NaCl, 25 C, 30 min, 1.7 nM 32P-ssDNA; 8% native PAGE in TBE at 4 C; settings: protein: recombinant; tags: none (tag-free); chain copies: 4; label: 5'-32P
[6] = target: T2, KpPriB; test: EMSA; ND; up to 50 uM protein; EMSA: 20 mM Tris-HCl pH 8.0, 100 mM NaCl, 25 C, 30 min, 1.7 nM 32P-ssDNA; 8% native PAGE in TBE at 4 C; settings: protein: recombinant; tags: none (tag-free); chain copies: 2; label: 5'-32P
[7] = target: T1, KpSSB; test: EMSA; ND; no stable complex up to 5 uM protein; EMSA: 20 mM Tris-HCl pH 8.0, 100 mM NaCl, 25 C, 30 min, 1.7 nM 32P-ssDNA; 8% native PAGE in TBE at 4 C; settings: protein: recombinant; tags: none (tag-free); chain copies: 4; label: 5'-32P
[8] = target: the molecule itself; test: crystal structure; KpSSB without DNA, 14 mg/mL, hanging drop vapor diffusion, 20% PEG 3350, 0.2 M magnesium acetate tetrahydrate, pH 6.5; four monomers per asymmetric unit

| Molecule | apparent K (half saturation) [2] [nM] | apparent K (half saturation) [3] [µM] | further results |
| --- | --- | --- | --- |
| chimeric PriB-SSBc protein (KpPriB1-98 fused KpSSB112-174) (from UniProt A6THB2 1-98; A6TGW7 112-174) | – | – | stoichiometry N [1]: 2 |
| TTTTTTTTTTTTTTTTTTTTTTTTTTTTTT (ssDNA) [dT30] | 550 ± 40 | 9.2 ± 0.8 | – |
| dT60 (ssDNA) DNA: TTTTTTTTTTTTTTTTTTTTTTTTTTTTTTTTTTTTTTTTTTTTTTTTTTTTTTTTTTTT | – | 4.8 ± 0.5 | apparent K (half saturation) [4]: 50 ± 10 nM |
| TTTTTTTTTTTTTTT (ssDNA) [dT15] | – | – | binding result [5]: no binding; binding result [6]: no binding |
| TTTTTTTTTTTTTTTTTTTT (ssDNA) [dT20] | – | – | binding result [7]: no binding |
| Klebsiella pneumoniae SSB (natural protein, UniProt A6TGW7 1-174, looked up, amino acids 120-174 not observed in the crystal structure; the gene spans 525 nt; also called KpSSB; source: E. coli, purified (ammonia sulfate precipitation, Q and Heparin columns)) MASRGVNKVILVGNLGQDPEVRYMPSGGAVANFTLATSESWRDKQTGEMKEQTEWHRVVLFGKLAEVAGEYLRKGSQVYIEGQLRTRKWTDQSGQDKYTTEVVVNVGGTMQMLGGRQGGGAPAGGGQQQGGWGQPQQPQGGNQFSGGAQSRPQQQAPAAPSNEPPMDFDDDIPF | – | – | stoichiometry N [8]: 4 |
| dT55 (ssDNA) DNA: TTTTTTTTTTTTTTTTTTTTTTTTTTTTTTTTTTTTTTTTTTTTTTTTTTTTTTT | – | 4.9 ± 0.5 | apparent K (half saturation) [4]: 130 ± 10 nM |
| TTTTTTTTTTTTTTTTTTTTTTTTTTTTTTTTTTTTTTTTTTTTTTTTTT (ssDNA) [dT50] | 170 ± 20 | 5.6 ± 0.3 | – |
| TTTTTTTTTTTTTTTTTTTTTTTTT (ssDNA) [dT25] | 580 ± 50 | 14.1 ± 1 | – |
| TTTTTTTTTTTTTTTTTTTTTTTTTTTTTTTTTTTTTTTT (ssDNA) [dT40] | 230 ± 10 | 9.1 ± 0.8 | – |
